Results published in publication PMC4834553.

Experiments:
Vn^80–396 (human) = assay: BLI; Octet RED96; Vn 80–396 immobilised on AR2G sensors by amine coupling at pH 5; KatA as analyte, 1 in 3 dilution series (50–0.055 nM) in PBS, 0.05% Tween20; KD from steady state analysis
[1] = biological target: catalase KatA of H. pylori CCUG18943, endogenous (Helicobacter pylori (endogenous in strain CCUG18943)) (UniProt P77872); assay: flow cytometry on cells; whole H. pylori (wt and ΔkatA) incubated with 3 μg human serum Vn per 10^6 cells, 1 h, 37 °C, PBS 1% BSA; sheep anti-human Vn Ab and FITC-conjugated anti-sheep pAb
[2] = biological target: catalase KatA of H. pylori KR497, endogenous (Helicobacter pylori (endogenous in strain KR497)) (UniProt P77872); assay: as above
[3] = biological target: catalase KatA of H. pylori KR697, endogenous (Helicobacter pylori (endogenous in strain KR697)) (UniProt P77872); assay: as above

| Substance | Kd (Vn^80–396 (human)) [nM] | koff (Vn^80–396 (human)) [s⁻¹] | kon (Vn^80–396 (human)) [M⁻¹ s⁻¹] | reduction of Vn binding to whole bacteria on deletion of katA [1] [%] | reduction of Vn binding to whole bacteria on deletion of katA [2] [%] | reduction of Vn binding to whole bacteria on deletion of katA [3] [%] |
| --- | --- | --- | --- | --- | --- | --- |
| full length recombinant KatA (from UniProt P77872 1-505) | 1 | 0.0003 | 1e+06 |  |  |  |
| human serum vitronectin (Vn), activated, purified from serum (natural protein) |  |  |  | 21 | 50 | 50 |
